To fix the notation:
T1: human FLT3 (human, UniProt P36888 27-541, limits assumed)
T1 construct: Soluble analyte hFLT3 in SPR; also called hFLT3; huFlt3
T1 sequence: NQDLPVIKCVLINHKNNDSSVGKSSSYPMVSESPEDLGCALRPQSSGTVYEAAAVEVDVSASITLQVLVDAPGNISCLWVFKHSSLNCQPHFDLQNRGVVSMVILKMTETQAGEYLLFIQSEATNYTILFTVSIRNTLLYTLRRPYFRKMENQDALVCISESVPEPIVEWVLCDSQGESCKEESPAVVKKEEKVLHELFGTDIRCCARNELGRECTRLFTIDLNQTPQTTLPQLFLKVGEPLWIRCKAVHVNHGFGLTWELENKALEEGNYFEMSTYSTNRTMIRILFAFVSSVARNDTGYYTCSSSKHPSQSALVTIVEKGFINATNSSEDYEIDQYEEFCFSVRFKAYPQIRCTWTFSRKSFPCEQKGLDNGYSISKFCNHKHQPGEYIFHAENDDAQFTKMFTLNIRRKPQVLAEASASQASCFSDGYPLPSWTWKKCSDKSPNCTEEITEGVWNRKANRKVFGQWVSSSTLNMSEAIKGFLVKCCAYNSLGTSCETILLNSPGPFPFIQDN

B1: P4H11 (scFv format) (scFv)
scFv: EVQLLESGGGLVQPGGSLRLSCAASGFTFSSYAMNWVRQAPGKGLEWVSSISGGGRSTYYADSVKGRFTISRDNSKNTLYLQMNSLRAEDTAVYYCARDLSPSDVGWGYGFDIWGQGTLVTVSSGGGGSGGGGSGGGGSEIVLTQSPGTLSLSPGERATLSCRASQSVSNTYLAWYQQKPGQAPRLLIYDTSSRATGIPDRFSGSGSGTDFTLTISRLEPEDFAVYYCQQYGSSLTFGQGTKVEIK
B2: P5A3 (scFv format) (scFv, not shown: a dimerising Fc or GST; small tags and cut ends)
scFv: QVQLVQSGAEVKKPGSSVKVSCKASGGTFSSYYIGWVRQAPGQGLEWMGGIIPWFGTANYAQKFQGRVTITADKSTNTAYMELSSLRSEDTAVYYCAADHHDSPSGYTSGGFDVWGQGTLVTVSSGGGGSGGGGSGGGGSQSALTQPASVSGSPGQSITISCTGTSSDVGGYNYVSWYQQHPGKAPKLMIYEVSKRPSGVPDRFSGSKSGNTASLTVSGLQAEDEADYYCSSYAGSNTVVFGGGTKLTVL
B3: P14G2 (scFv format) (scFv)
scFv: EVQLLESGGGLVQPGGSLRLSCAASGFTFSNYVMNWVRQAPGKGLEWVSAISGSGATTYYADSVKGRFTISRDNSKNTLYLQMNSLRAEDTAVYYCVSGLWAGGIWGQGTLVTVSSGGGGSGGGGSGGGGSDIQMTQSPSSLSASVGDRVTITCRASQSISSYLNWYQQKPGKAPKLLIYDASDLQRGVPSRFSGSGSGTDFTLTISSLQPEDFATYYCQQSYNTPWTFGQGTKVEIK
B4: P7H3 (scFv format) (scFv, not shown: a dimerising Fc or GST; small tags and cut ends)
scFv: EVQLLESGGGLVQPGGSLRLSCAASGFTFSSYAMHWVRQAPGKGLEWVSAISGSGGSTYYADSVKGRFTISRDNSKNTLYLQMNSLRAEDTAVYYCARGTRWWWGDAFDHWGQGTLVTVSSGGGGSGGGGSGGGGSQSVLTQPPSVSVAPGKTARITCGGNNIGSKSVHWYQQKPGQAPVLVIYYDSDRPSGIPERFSGSNSGNTATLTISRVEAGDEADYYCQVWDSSTAWVFGGGTKLTVL
B5: P7F9 (scFv format) (scFv)
scFv: EVQLLESGGGLVQPGGSLRLSCAASGFTFSSYAMSWVRQAPGKGLEWVSAIGGSGGSTYYADSVKGRFTISRDNSKNTLYLQMNSLRAEDTAMYYCARDYYAFSDPAYGGMDVWGQGTLVTVSSGGGGSGGGGSGGGGSNFMLTQPHSVSESPGKTVTISCTRSSGSIASNYVQWYQQKPGQAPVLVVYDDSDRPSGIPERFSGSNSGNTATLTISRVEAGDEADYYCQVWDSSSDHWVFGGGTKLTVL
B6: P9F1 (scFv format) (scFv, not shown: a dimerising Fc or GST; small tags and cut ends)
scFv: EVQLLESGGGLVQPGGSLRLSCAASGFIFSSFAMSWVRQAPGKGLEWVSDISGSGASTYYADSVKGRFTISRDNSKNTLYLQMNSLRAEDTAVYYCASASGGSGSYWPYMDPWGQGTLVTVSSGGGGSGGGGSGGGGSQSVLTQPPSASGTPGQRVTISCSGSGSNIGSNYVYWYQQLPGTAPKLLIYRNNQRPSGVPDRFSGSKSGTSASLAISGLRSEDEADYYCAAWDGSLSRPVFGTGTKLTVL
B7: P5F7 (scFv format) (scFv)
scFv: EVQLLESGGGLVQPGGSLRLSCAASGFTFSSYAMNWVRQAPGKGLEWVSSISGGGRSTYYADSVKGRFTISRDNSKNTLYLQMNSLRAEDTAVYYCARDLSPSDVGWGYGFDIWGQGTLVTVSSGGGGSGGGGSGGGGSEIVLTQSPATLSLSPGERATLSCRASQSVSSNLAWYQQKPGQAPRLLIYDTFTRATGIPARFSGSGSGTDFTLTISRLEPEDFAVYYCQQYGSSPPTFGQGTRLEIK
B8: P9B5 (scFv format) (scFv, not shown: a dimerising Fc or GST; small tags and cut ends)
scFv: EVQLLESGGGLVQPGGSLRLSCAASGFIFASYAMSWVRQAPGKGLEWVSEISSSGGSTTYADSVKGRFTISRDNSKNTLYLQMNSLRAEDTAVYYCARDRVMAGLGYDPFDYWGQGTLVTVSSGGGGSGGGGSGGGGSQSVLTQPPSASGTPGQRVTISCSGSSSNIGSNYVYWYQQLPGTAPKLLIYRNNQRPSGVPDRFSGSKSGTSASLAISGLRSEDEADYYCAAWDDSLSGVVFGGGTKLTVL
B9: P1B11 (scFv format) (scFv, not shown: a dimerising Fc or GST; small tags and cut ends)
scFv: QVQLVQSGAEVKKPGSSVKVSCKASGGTFRSFDISWVRQAPGQGLEWMGRIIPILGYANYAQKFQGRVTITADESTSTAYMELSSLRSEDTAVYYCASDLGAPWAGYPFDPWGQGTLVTVSSGGGGSGGGGSGGGGSEIVLTQSPGTLSLSPGERATLSCRASQSVSSSELAWYQQKPGQAPRLLIYDASSRATGIPDRFSGSGSGTDFTLTISRLEPEDFAVYYCQQYDSSPLTFGQGTKVEIK
B10: P1B4 (scFv format) (scFv, not shown: a dimerising Fc or GST; small tags and cut ends)
scFv: QVQLVQSGAEVKKPGSSVKVSCKASGGVFSRYALSWVRQAPGQGLEWMGGIIPMLGFANYAQKFQGRVTITADESTSTAYMELSSLRSEDTAVYYCATLDFGALDYWGQGTLVTVSSGGGGSGGGGSGGGGSEIVLTQSPGTLSLSPGERATLSCRASQSVPNEQLAWYQQKPGQAPRLLIYDASSRATGIPDRFSGSGSGTDFTLTISRLEPEDFAVYYCQQYGSPPLTFGQGTKVEIK
B11: P1A5 (scFv format) (scFv)
scFv: QVQLVQSGAEVKKPGSSVKVSCKASGGVFSRYALSWVRQAPGQGLEWMGGIIPMLGFANYAQKFQGRVTITADESTSTAYMELSSLRSEDTAVYYCATLDFGALDYWGQGTLVTVSSGGGGSGGGGSGGGGSEIVLTQSPGTLSLSPGERATLSCRASQAVDSSDLAWYQQKPGQAPRLLIYDAYTRPSGIPDRFSGSGSGTDFTLTISRLEPEDFAVYYCQQYGSSPLTFGGGTKLEIK
B12: P4C7 (scFv format) (scFv, not shown: a dimerising Fc or GST; small tags and cut ends)
scFv: QVQLVQSGAEVKKPGSSVKVSCKASGGTFSSYTISWVRQAPGQGLEWMGGIIPAFGIANYAQKFQGRVTITADKSTSTAYMELSSLRSEDTAVYYCAKGGSYSLDYFDIWGQGTLVTVSSGGGGSGGGGSGGGGSEIVLTQSPGTLSLSPGERATLSCRASQYVSASLLAWYQQKPGQAPRLLIYGASTRATGIPDRFSGSGSGTDFTLTISRLEPEDFAVYYCQQYARSSTFGQGTKVEIK
B13: P3E10 (scFv format) (scFv)
scFv: QVQLVQSGAEVKKPGSSVKVSCKASGGTFSSYAIQWVRQAPGQGLEWMGGIVGSWGLANYAQKFQGRVTITTDKSTSTAYMELSSLRSEDTAVYYCATSAFGELASWGQGTLVTVSSGGGGSGGGGSGGGGSEIVLTQSPGTLSLSPGERATLSCRASQSVPSSQLAWYQQKPGQAPRLLIYDASSRATGIPDRFSGSGSGTDFTLTISRLEPEDFAVYYCQQYGSSPLTFGQGTKVEIK

The test concerns the target T1, human FLT3. As to the kind of experiment: SPR Biacore T200, 37C; scFv format.
The term Kd denotes the concentration at which binding is half-saturated. A low value points to higher affinity. For orientation: koff means the rate constant with which the complex falls apart. A low value points to slow dissociation. As a reminder, the kon is the second-order rate constant of association. A lower kon goes with slower complex formation. On to B1, for which the dissociation constant Kd came to 58.3 nM, the koff is 0.00933 s⁻¹, the kon was determined as 160000 M⁻¹ s⁻¹ and the t1/2 stood at 1 min.
For the molecule B2, the dissociation constant Kd was 216 nM, the dissociation rate constant (koff) came out at 0.0175 s⁻¹, the association rate constant (kon) was determined as 81000 M⁻¹ s⁻¹ and the t1/2 worked out at 0.7 min.
B3: the equilibrium dissociation constant (Kd) was found to be 3.3 nM, the koff worked out at 0.000305 s⁻¹, the on-rate (kon) worked out at 93500 M⁻¹ s⁻¹ and the t1/2 is 37.9 min.
The molecule B4 registered an equilibrium dissociation constant (Kd) of 9.1 nM, an off-rate (koff) of 0.00187 s⁻¹, an association rate constant (kon) of 205000 M⁻¹ s⁻¹ and a t1/2 of 6.2 min.
For the molecule B5, binding was put at a Kd of 27.7 nM, the off-rate constant (koff) came out at 0.00241 s⁻¹, the on-rate (kon) was 87000 M⁻¹ s⁻¹ and the t1/2 worked out at 4.8 min.
In turn, B6 displayed a Kd of 126 nM, an off-rate constant (koff) of 0.0286 s⁻¹, a kon of 226000 M⁻¹ s⁻¹ and a t1/2 of 0.4 min.
As for B7, the Kd turned out to be 1 nM, the off-rate (koff) turned out to be 0.000197 s⁻¹, the kon was 189000 M⁻¹ s⁻¹ and the t1/2 worked out at 59 min.
B8 gave a dissociation constant Kd of 18.1 nM, a koff of 0.000687 s⁻¹, a kon of 38000 M⁻¹ s⁻¹ and a t1/2 of 16.8 min.
With B9, the Kd is 30.3 nM, the dissociation rate constant (koff) was determined as 0.00257 s⁻¹, the association rate constant (kon) came to 84700 M⁻¹ s⁻¹ and the t1/2 came to 4.5 min.
Regarding B10, the affinity, expressed as Kd, was 27.3 nM; the koff is 0.00327 s⁻¹; the on-rate constant (kon) amounted to 120000 M⁻¹ s⁻¹; the t1/2 was 3.5 min.
The molecule B11 came in with a Kd of 1.1 nM, an off-rate (koff) of 0.000292 s⁻¹, an association rate constant (kon) of 259000 M⁻¹ s⁻¹ and a t1/2 of 40 min.
Molecule B12 returned a Kd of 13.6 nM, a koff of 0.00164 s⁻¹, a kon of 121000 M⁻¹ s⁻¹ and a t1/2 of 7 min.
B13 displayed a Kd of 65.1 nM, an off-rate (koff) of 0.0112 s⁻¹, an on-rate constant (kon) of 172000 M⁻¹ s⁻¹ and a t1/2 of 1 min.
